The record followed here is the DeepSol protein solubility set.

This data set can be described thus: soluble on expression in E. coli; label from the status in PepcDB or PDB records.
For “MTDQPISLEEIRLRLNELDDQLLSLLSERRKLSIEVAKSKVQTSKPVRDAVREQQLLVKLISNGRDKYELDAQYITKLFHTIIEDSVLLQQGYLQNLVNPQQSRKPLARVAFLGAKGSYSHLASREYFSRKNTELIELNCEHFKEVTRTVESGHADYGVLPIENTSSGSINEVYDLLQHTTLYIVGELTQPIEHCLVATKDIRLEDIKTLYSHPQPHQQCSEFLSRMKGVKLESCASTADAMQKVQEMNRDDVAAIGNASSGKLYGLQAIQGNIANQTENHTRFIVVARKPVEVSTQIPAKTTLIMSTSQEAGSLVETLLVLQRYGINMTKLESRPIMGNPWEEMFYVDLEAHLGSTEMQQALQELTKITKHLKVLGCYPSENIKPTQVKLS”, the “soluble on expression in E. coli” value is recorded as “not soluble”. As for “VPDKSPDLLFELLNDFFTQLLSAGESESMDNLIELDLTFSQVRMLFALVQHGEPLPINEVAERLRLSVAAAGRNVDQLVKLGLVVRREDERDRRVKRVSLSEAGHKVATQHIECKRDQLRRFAWRVPEIERTRLIEALQPILAGESLRELNQEILG”, the entry is “not soluble”; as for “MWEHDIVLEKIVDPVPDALYPCCIKAVRVGLKEDSWGEVQAIEEEMSTAELTANVNVALAPFQRKVVKEEGEAKKTKRAASKGRVEEVEQDVWKTLFDQALAYRDLAPWTWMDDDQIFAVVTPDGESLYCTVIGALGQEYGLVIYMGEEGYACLQDILSGTLHPKDAVFKERALLVSLAPRNHLERDDKALLRKHHIPVSGKQLLPMFRSFVPGYYPWFLSEEEAAWAAMALEQAVVVAERLRDGELFLASSARGNRLFARIAERREDGLHWRDGWVPPPKAKKKETSALDIGTDELAKAKTLERAPLFVEFSVAYVNRPIQERRWERPYFPLLVLAADAASGVILHHQVFRGQTDAKTLQQSFLAFARALGCVPSHVRVTKEHGPLLAPLLRELGVNMSTGPTPRSDEVRELFEQFAI”, “not soluble”; as for “SMSETFDVELTKNVQGLGITIAGYIGDKKLEPSGIFVKSITKSSAVEHDGRIQIGDQIIAVDGTNLQGFTNQQAVEVLRHTGQTVLLTLMRRGETSV”, “soluble”.

For “MAYWRKWRTSMNLEALPKYYSPKSPKLSDAAPATGSGGLTITDVMAAQGMVQSKAPLGFALFLAKAGVQDPQFAIEGLLNYAMALDNPTLNKLSEEIRLQIIPYLVSFAFADYSRSAASKARCEPCAGTGFHNVLREVVKYSRSGESVIKEEWVKELCQHCHGKGEVSTACRGCKGKGIVLDEKRTRLHGAPVYKICGRCNGNRFSRLPTTLARCHVQKLVPDLTDYQWYKGYADVIDKLVTKCWQEEAYAEVQLRKVTR”, the “soluble on expression in E. coli” value was “not soluble”.

For “MYTIAALYHFTRFADPADLKPALLDLCLAQGVKGTLLLAKEGINGTIAGPRAGIDAVLAHIRALPGCSDLEWKEATSDHPPFGKMKVRLKQEIVTMGQPDVDPRARVGHYVEPEDWNDLIRSDDVVLIDTRNDYEVAIGTFEGAIDPMTESFRDFPAWWEANKERFHNKRVAMFCTGGIRCEKSTNYLLGQGVEDVYHLKGGILRYLEEVPAENSTWQGECFVFDNRVSVGHGLVEGPHELCHGCRRPILPEDRNRPEYEHGVSCHLCIDETSEADKMRFRERQKQIALARARGEDHLATH”, the “soluble on expression in E. coli” value was “not soluble”.

As for “GMFAGSIPMYIRVVSITAQSKLQFDMTVTYFENVWSPKVISLGAISAEFVQSNENSGMYIIHYPDKQTAISVFDKIKPEVDEVRTQNRIQITEGKRLFRVD”, the “soluble on expression in E. coli” value was “soluble”.

With “MASIAIEYHSVVLGMERKVNVIYPDQSEIPKKDQGDKDIPVLYLLHGMGGNENSWQKRTAIERLLRHTNLIVVMPSTDLGWYTDTAYGLNYYRALSQELPQVLAAFFPNMTQKREKTFVAGLSMGGYGAFKWALKSNRFSYAASFSGALDFSPETLLEGKLGELAYWQGVFGQFDDPDLDKHYLKNMVAESDGKTKFYAWCGYEDFLFATNEKAIADFQAQGLDIDYHKGHGKHEWYYWNQQLEVLLEWLPINYQKEERLS”, the “soluble on expression in E. coli” value is “not soluble”.

For “MSLNERAKIKIIPLGGINEIGKNITAIEYKEDIIIIDCGLKFPDDDMFGIDIVIPDVSYLIKNSEKIKGIFLTHGHEDHIGALPYVLRQLNVPVYGTKLTLGIVETKLKEHGLLASTELVRVKPKDIIKLDSVSVEFIKTNHSIADSVAIAVHTPLGVVLHTGDFKIDYTPIDGEMMDFGRLAELGRKGVLVLMADSTNVERPGYTMTEKVVGETFLRLFGKAKGRLIVATFASNVHRIQQIITAAEAYEKKVAVSGRSMENIVQVAIELGYLTVGKDVLVPVDQISKYPNEKIVVITTGSQGEPMSALARMAASEHRKINVIPGDTVIISATPIPGNEKFVSKVINQLFKKGAQVIYDSQEKIHVSGHACQEELKLMQALVKPKFFVPVHGEYRHLKKHGELAMEVGLSEKNLLIPENGDVIEVAREGHHHHHH”, the “soluble on expression in E. coli” value was “soluble”. For “MGSDKIHHHHHHMTQTSSPLRNRYEFLLLFDVENGNPNGDPDSGNAPRVDPEDGHGLVSDVALKRRVRNYVQAAGEQIFIQHGTNLNRPIFQAKQASGGGSKGKQDVDAARRWMCEHFYDVRTFGAVMSTGANAGQVRGPVQLTFARSLDPVFAIEASITRGAVAEDIKNAKTLDDFLNWEAQQDEDKLRTMGRKSLIPYGLFATKGFVSAHLAQGTGFSEADLKLLLEALLNMYEHDRSASKGLMSSRRLFVFRHVGTDSDPQQRARQAVLGCAPAHKLLDLGQVIEVRRKDEHKPARALSDYEVTVHLDRLPAGVELLDLDSWDEARYHDGWQSR” the value was “not soluble”.

In the case of “MRIFAVFIFMTYWHLLNAFTVTVPKDLYVVEYGSNMTIECKFPVEKQLDLAALIVYWEMEDKNIIQFVHGEEDLKVQHSSYRQRARLLKDQLSLGNAALQITDVKLQDAGVYRCMISYGGADYKRITVKVNAPYNKINQRILVVDPVTSEHELTCQAEGYPKAEVIWTSSDHQVLSGKTTTTNSKREEKLFNVTSTLRINTTTNEIFYCTFRRLDPEENHTAELVIPELPLIEGRSRGSGLNDIFEAQKIEWHHHHHHHH”, the “soluble on expression in E. coli” value was “soluble”. Consider “MASTELSLKRTLTDILEDELYHTNPGHSQFTSHYQNYHPNASITPYKLVNKNKENNTFTWNHSLQHQNESSAASIPPQQTYHFPIFNKYADPTLTTTTSFTTSEATANDRQINNVHLIPNEIKGASETPLQKTVNLKNIMKVSDPYVPTRNTFNYDVKISNDFFDNGDNLYGNDEEVLFYEDNYNPKMQWSLQDNSAAINNEDARAIFNNEFDSDDDDISDDEEDEIEENCLQQEQHQEEPLLSLDVTPISMFGSDQKTGRAKSSSHLFNEYSYVDSNMDSISSVVSEDLLDERGHEKIEDEDEDNDLDEDDIYDISLLKNRRKQSFVLNKNTIDFERFPSPSTSANVPSTATTGKRKPAKSSSNRSCVSNSNENGTLERIKKPTSAVVSSNASRRKLINYTKKHLSSHSSTNSNSKPSTASPSAHTSSSDGNNEIFTCQIMNLITNEPCGAQFSRSYDLTRHQNTIHAKRKIVFRCSECIKILGSEGYQKTFSRLDALTRHIKSKHEDLSLEQRQEVTKFAKANIGYVMG”, for which the “soluble on expression in E. coli” value is recorded as “not soluble”. As for “MSLTELLNNLEYKKEQLKKLLLRIHEGESVEKLKEEFRTVLSNISPLEIPLIEQELVKEGISARDIAKMCDLHVELFREAVKGTGEVEEKDLPEGHPLKTLYQENKEIMKDAEMLNLYAKTLATTKDERMREEILGVLEEIVSSLRMVGFTHYNREEMLIFPYIERRGLTVIATVLWTKHDEIRAMIKQLAELLRKREEMPWEEFVEKFKAKAGEVAFALSDMVFRENNIFYPTLKALLSEGEWKAIKMQEDEIGYYKVKPPEWDPGEDVKPLHPWEINPELNVEQLLTLPKEVQQALRGQPLEFDKTQLKREEDIDLGTGYLNIEELKAIFEALPVDVTFIDKDDRVRFFSPGERIFTRTPSVLGRPVQLCHPPKSVYVVNKILKAFKEGRKKEATFWLRLREKYVYIKYVPLFNEKGEYIGTLEMTMDIAPYKKIEGEKRLLDWRDEGHHHHHH”, the entry is “soluble”. On to “GPQDPYEINLMEELTLKGVTQYYAYVTERQKVHCLNTLFSRLQINQSIIFCNSSQRVELLAKKISQLGYSCFYIHAKMRQEHRNRVFHDFRNGLCRNLVCTDLFTRGIDIQAVNVVINFDFPKLAETYLHRIGRSGRFGHLGLAINLITYDDRFNLKSIEEQLGTEIKPIPSNIDKSLYVAEYHSEPVEDEKP”, for which the “soluble on expression in E. coli” value was “soluble”.

“MGSDKIHHHHHHMVEPMTPRFKYTKASQENIQQLGNILEQCFVMSFGDSEIYVKGIGLENFRVIYREQKVAGGLAILPMGQWWGGQRVPMAGIAAVGIAPEYRGDGAAIALIQHTLQEISEQDIPISVLYPATQRLYRKAGYEQAGSSCVWEIPTDSIQIQHASLPLEPVVLKNNPIFHELYQQQAQLTHGYLDRHPAIWQGLNRTLDTETLYSYLIGDKDKPQGYIIFTQERTRDGSILRIRDWVTLSNPAVQSFWTFIANHRSQIDKVTWKSSVIDALTLLLPEQSATIRSQDRWMLRIVNVCKALEARGYPLGVEAELHLEVQDDLLATNQGKFILSVANGKSEVTKGGKGELQLDIKGLASLYTSLFTPRQLQLTGKLQATETALLKATQIFAGESPWMIDFF”: the “soluble on expression in E. coli” value is on record as “not soluble”. As for “MGSDKIHHHHHHMLGMPTVLGVVLRMGRELWWCSLRPVSMLKEYAYCPRVAYYMEVLRPSYRPTEPMNLSREIYSVDHVRGILRSSGFRIVKEEWAVPLRSKRLGLQGVADGVVVEGSLGIIVVEAKLSVRSNRWLHTRGRHVIFQAAAYALALEETRGYSVDYLAIVSLEDSKTYVVKMSPSLRRDVIRLADDMNKTLDDGLEPPPKPGRKCVACRFRRVCQPWVAERGSER”, the “soluble on expression in E. coli” value is listed as “not soluble”. As to “MSLEYARRQALAREGLSAAGLDALIVTGPENIFYLCGQQTPGYYTFQALILPADGDPVFLIRQLEYFNFIANTFISDAVVYQDGEDPLALLVKLIESRGLASRRIAIDKRGWFLPIAVYEALQARLGTIGDGAGVIERFRAIKSPLEVEKLEKAAAYVDEGMRAGLAAVRVGATENDLVSAMLGSAIAAGSEYLGMEPLVSVGPRTGVPHGTWRRRAITDGDPAFLEMAACHDRYHAALMRSAWIGEPPREAVDMMKACQEALQVSLDTIRPGVACEVPHIACQKVIDRAGYTDNFKKRLGYSVGISFAPDWGEGAILSLNTGVKTELQPGMTFHLPPALRIYGRFTVGVSETIVVTETGYRALGSIDRNLLIVEGHHHHHH”, the “soluble on expression in E. coli” value is reported as “soluble”.

Consider “MGSDKIHHHHHHMLEQSIEAFKACVNDWLSAIAQLGEKPNRGNLHRFAYRAIRDKYPQLHSNVVQDAMNLAIEIYRSWLKNGGEFPKFRSDVIYFKGVDVRIENNGLVVPLMGRRVYLPLYVPKKYKKYLQYKHGRVIIKRVDKDWYALVSVNVPEKEPIKPVGTIGVDLGYYNLLVASDEKGRVVMRVQGDILIRHKEHMERLTARRQERLMKKFGIYARTNHKDRRFVNDLNHKIAKALVLKAKQLNRAIVLEKLKGLKKQRRPKLLRKILHLWSYADLIAKIVYKAKLYGVPVIFVSPRGTSKTCSNCGYYVRTFKDDRVFRCPKCGFVADRDYNASINIAKKGLEELRKRTFLPTLKDEASSPQGW”, for which the “soluble on expression in E. coli” value is given as “not soluble”.

As for “MAHHHHHHMQQASAAASDEWRTKFGGGGASHDWQASKGNFTNQEFESYWGQKWPNWLKTEKATYPNAANKKWLEQNPPPKQGPAQAKTAKQLAVYAEEAAALARTYTEGITAAHGRELKAIKTALRAALYGTNKKTARAFRR”, the “soluble on expression in E. coli” value is on record as “soluble”.
